Laboratory results: PMC3084661
Read-outs that look alike come from different tables or passages of the source.

Legend:
Experiment in all cases: FRET or BRET
[1] = target: S. oneidensis RNA polymerase core (α, β, β′, ω), assembled in vivo (Shewanella oneidensis MR-1) (UniProt Q8EK47)
[2] = target: S. oneidensis RNA polymerase core (α, β, β′, ω), assembled in vivo (Shewanella oneidensis MR-1) (UniProt Q8EK47); remark: listed apart in the source
[3] = target: S. oneidensis RNA polymerase core (α, β, β′, ω), assembled in vivo (Shewanella oneidensis MR-1) (UniProt Q8EK47); remark: listed apart in the source

Cy3B-labelled single-cysteine S. oneidensis σ^70 derivative N399C (from UniProt Q8EHE1 1-616) (natural protein)
σ^70 retention half-life [1]: 1.33 h
initial σ^70 retention (%) [2]: 45%
σ^70 retention half-life [2]: 0.717 h
initial σ^70 retention (%) [3]: 59%
σ^70 retention half-life [3]: 1.25 h
